The text below walks through data of publication PMC6713926 (2019).

The experiment concerns the target Biotinylated C3b (human, UniProt P01024 23-667; P01024 749-1663, biotin (Maleimide-PEG2-Biotin)). The experiment is described as follows: BLI.

Positions count from the first letter of the chain named. Names may count otherwise.

Chain of Biotinylated C3b (P01024 23-667, chain 1 of 2): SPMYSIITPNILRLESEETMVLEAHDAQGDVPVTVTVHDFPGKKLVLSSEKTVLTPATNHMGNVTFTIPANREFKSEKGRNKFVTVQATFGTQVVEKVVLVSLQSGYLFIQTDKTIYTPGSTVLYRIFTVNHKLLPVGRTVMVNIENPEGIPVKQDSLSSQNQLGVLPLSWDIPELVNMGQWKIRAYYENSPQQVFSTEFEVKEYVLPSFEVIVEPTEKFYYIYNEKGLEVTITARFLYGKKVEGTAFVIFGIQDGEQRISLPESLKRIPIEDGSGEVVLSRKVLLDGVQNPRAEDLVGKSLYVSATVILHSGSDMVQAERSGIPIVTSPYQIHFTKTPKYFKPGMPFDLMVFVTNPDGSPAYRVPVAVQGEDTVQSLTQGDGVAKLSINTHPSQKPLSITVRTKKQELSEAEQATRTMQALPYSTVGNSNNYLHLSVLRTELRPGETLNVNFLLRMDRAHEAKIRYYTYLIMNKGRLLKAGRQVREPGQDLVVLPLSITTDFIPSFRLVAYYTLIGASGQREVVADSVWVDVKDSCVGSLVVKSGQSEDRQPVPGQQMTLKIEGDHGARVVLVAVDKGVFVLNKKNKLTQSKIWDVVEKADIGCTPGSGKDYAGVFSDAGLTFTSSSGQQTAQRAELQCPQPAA
Chain of Biotinylated C3b (P01024 749-1663, chain 2 of 2): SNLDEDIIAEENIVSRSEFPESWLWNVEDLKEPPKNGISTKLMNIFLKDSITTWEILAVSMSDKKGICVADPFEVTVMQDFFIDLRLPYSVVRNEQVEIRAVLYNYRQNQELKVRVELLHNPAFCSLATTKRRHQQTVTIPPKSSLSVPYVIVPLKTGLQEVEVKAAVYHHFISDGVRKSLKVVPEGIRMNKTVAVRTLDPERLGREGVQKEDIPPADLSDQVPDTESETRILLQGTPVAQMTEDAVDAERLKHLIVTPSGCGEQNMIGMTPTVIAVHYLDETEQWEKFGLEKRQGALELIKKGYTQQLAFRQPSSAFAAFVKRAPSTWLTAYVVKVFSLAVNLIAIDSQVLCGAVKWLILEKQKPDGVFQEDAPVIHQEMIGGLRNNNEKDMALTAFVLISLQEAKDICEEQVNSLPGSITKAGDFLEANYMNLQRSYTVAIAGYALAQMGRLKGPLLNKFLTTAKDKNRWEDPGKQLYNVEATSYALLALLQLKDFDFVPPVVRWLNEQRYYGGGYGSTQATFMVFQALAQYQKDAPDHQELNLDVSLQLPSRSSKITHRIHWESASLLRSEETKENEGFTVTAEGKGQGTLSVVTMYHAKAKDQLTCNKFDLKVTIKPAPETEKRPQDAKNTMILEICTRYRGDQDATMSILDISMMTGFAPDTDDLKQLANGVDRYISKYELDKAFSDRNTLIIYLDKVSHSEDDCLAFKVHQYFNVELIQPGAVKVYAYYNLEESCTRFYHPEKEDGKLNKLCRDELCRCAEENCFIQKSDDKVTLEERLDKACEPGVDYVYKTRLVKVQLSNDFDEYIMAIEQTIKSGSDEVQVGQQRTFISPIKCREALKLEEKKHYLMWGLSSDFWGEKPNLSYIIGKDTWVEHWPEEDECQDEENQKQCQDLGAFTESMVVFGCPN

B1: FPht Q343R (complex)
chain 1: DPVLCFTQYEESSGKCKGLLGGGVSVEDCCLNTAFAYQKRSGGLCQPCRSPRWSLWSTWAPCSVTCSEGSQLRYRRCVGWNGQCSGKVAPGTLEWQLQACEDQQCCPEMGGWSGWGPWEPCSVTCSKGTRTRRRACNHPAPKCGGHCPGQAQESEACDTQQVCPTHGAWATWGPWTPCSASCHGGPHEPKETRSRKCSAPEPSQKPPGKPCPGLAYEQRRCTGLPPCP
chain 2: VAGGWGPWGPVSPCPVTCGLGQTMEQRTCNHPVPQHGGPFCAGDATRTHICNTAVPCPVDGEWDSWGEWSPCIRRNMKSISCQEIPGRQSRGRTCRGRKFDGHRCAGQQQDIRHCYSIQHCPLKGSWSEWSTWGLCMPPCGPNPTRARQRLCTPLLPKYPPTVSMVEGQGEKNVTFWGRPLPRCEELQGQKLVVEEKRPCLHVPACKDPEEEEL
Usually Kd stands for a measure of binding affinity in units of concentration. Read a low Kd as a tighter complex. The molecule B1 returned a Kd of 4 µM.

B2: FPht Y414D (complex)
chain 1: B1 chain 1
chain 2: B1 chain 2 with R88Q, Y159D
As to B2, binding was characterised by a dissociation constant (Kd) of 5 µM.
